Results as given in patent US20120009180A1 (Kyowa Kirin, published 2012).
Where a chain is given by its changes, count along the chain named.

B1: anti-Aβ oligomer humanized antibody HV0LV0 (antibody, V domains shown)
VH: DVQLVESGGGVVQPGRSLRLSCAASGFTFSSFGMHWVRQAPGKGLQWMVYISSGSSTIYYADTVKGRFTISRDNSRSTLFLQMNSLRGEDTAVYYCARTGTRAYWGQGTLVTVSS
VL: DIVMTQSPLSLPVTPGEPASISCRSSQSIVHSNGNTYLEWYLQKPGQSPQLLIYKVSNRFSGVPDRFSGSGSGTDFTLKISRVEAEDVGVYYCFQGSHVPPTFGQGTKLEIK
notes: purified on Prosep vA; also called HV0LVV0; 4H5HV0 + 4H5LV0
B2: anti-Aβ oligomer humanized antibody HV6LV3 (antibody, V domains shown)
VH: B1 VH with Q46E, M48V, V49A, S77N, V93M, R98G
VL: B1 VL with I2V, P15L, Q50K
B3: anti-Aβ oligomer humanized antibody HV5aLV1b (antibody, V domains shown)
VH: B1 VH with Q46E, M48V, V49A, V93M, R98G
VL: B1 VL with P15L
B4: anti-Aβ oligomer humanized antibody HV5aLV0 (antibody, V domains shown)
VH: B1 VH with Q46E, M48V, V49A, V93M, R98G
VL: B1 VL
notes: also called HV5aVL0

target: T1, Aβ oligomers prepared from Amyloid β-protein, Human 1-42 peptide (human, UniProt P05067 672-713); experiment: SPR (Biacore T100), Aβ oligomers amine-coupled to CM5 chip, antibody injected, Bivalent Analyte model (kd1/ka1)
T1 construct: domain: Amyloid β-protein 1-42; Oligomeric preparation (HFIP, DMSO, acetic acid solution pH 4.5, overnight at 4 °C); Amine-coupled to a CM5 chip; also called amyloid β oligomer
T1 sequence (P05067 672-713 limits assumed): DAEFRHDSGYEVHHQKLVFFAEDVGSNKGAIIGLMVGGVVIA
Description: (§1) All the following operations were performed using Biocore T100 (manufactured by GE Healthcare Bio-sciences). The Aβ oligomers obtained in (1) of Example 2 were immobilized to the CM5 sensor chip (GE Healthcare Bio-sciences) using the amine coupling method.
(§2) Onto the chip to which the Aβ oligomers were immobilized for measurement samples prepared to have 8 levels of density by diluting from 30 μg/mL by doubling dilution in a stepwise manner (HV0LV0, HV5aLV0, HV5aLV1b, HV5aLV3, HV6LV0, HV6LV1b, and HV6LV3) was sequentially injected and measured in the order from the lower density based on the automatic program of the multi-kinetics.
(§3) Using the analysis software attached to the device, Biacore T100 Evaluation software (manufactured by Biacore Life Science), analysis was carried out with the Bivalent Analyte model to calculate the binding rate constant ka and the dissociation rate constant kd of each of the antibody against Aβ oligomers.

Kd | Binder
100 nM | B1
110 nM | B2
90 nM | B3
55 nM | B4

target: T1, Aβ oligomers prepared from Amyloid …; experiment: SPR (Biacore T100), Aβ oligomers amine-coupled to CM5 chip, antibody injected, Bivalent Analyte model (ka1)
Description: as §1, §2, §3

kon | Binder
14000 M⁻¹ s⁻¹ | B1
8200 M⁻¹ s⁻¹ | B2
9800 M⁻¹ s⁻¹ | B3
11000 M⁻¹ s⁻¹ | B4

target: T2, Aβ monomers prepared from Biotin-beta-Amyloid, Human 1-40 (human, UniProt P05067 672-711, biotin (Biotin-beta-Amyloid; position of the biotin not stated)); experiment: SPR (Biacore T100), biotin-Aβ1-40 monomers captured on SA chip, antibody injected
T2 construct: domain: beta-Amyloid 1-40; captured through biotin on an SA sensor chip; also called amyloid β protein monomer
T2 sequence (P05067 672-711 limits assumed): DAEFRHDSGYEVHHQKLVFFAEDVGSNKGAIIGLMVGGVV
Description: In order to analyze the binding activity of the respective anti-Aβ oligomer humanized antibodies (HV0LV0, HV5aLV0, HV5aLV1b, HV5aLV3, HV6LV0, HV6LV1b, and HV6LV3) against Aβ monomers, the binding activity was measured in the same manner as in (1) of this Example. In addition, the binding activity of anti-Aβ antibody 6E10 (manufactured by CONVANCE) was measured as a control antibody.
The Aβ monomers obtained in (2) of Example (2) were immobilized to the SA sensor chip (manufactured by GE Healthcare Bio-sciences) by the biotin capturing method. Onto the chip to which the Aβ monomers were immobilized, samples for measurement, which were prepared to have 5 levels of density by diluting from 30 μg/mL by doubling dilution in a stepwise manner (HV0LV0, HV5aLV0, HV5aLV1b, HV5aLV3, HV6LV0, HV6LV1b, and HV6LV3) were sequentially injected and measured in the order from the lower density based on the automatic program of the multi-kinetics mode.

binding result | Binder
no binding | B1
no binding | B2
no binding | B3
no binding | B4

target: T1, Aβ oligomers prepared from Amyloid …; experiment: SPR (Biacore T100), Aβ oligomers amine-coupled to CM5 chip, antibody injected, Bivalent Analyte model (kd1)
Description: as §1, §2, §3

koff | Binder
0.0014 s⁻¹ | B1
0.00092 s⁻¹ | B2
0.00088 s⁻¹ | B3
0.00063 s⁻¹ | B4
